Molecular target: lysozyme (chicken (hen egg white), UniProt P00698 19-147)
Test: visible aggregation assay (photograph texture); 3 ul of 25 nM aptamer + 10 ul of lysozyme; indirect read-out, lysozyme alone gave no aggregate; lysozyme in ultrapure water, no buffer or salt stated; 25 nM aptamer (3 ul) heated at 70 C for 3 min before use; 20 C, 70-90% relative humidity, about 1 min on
Conditions: protein: commercial; 3' hairpin (predicted only)

Chain of lysozyme (P00698 19-147): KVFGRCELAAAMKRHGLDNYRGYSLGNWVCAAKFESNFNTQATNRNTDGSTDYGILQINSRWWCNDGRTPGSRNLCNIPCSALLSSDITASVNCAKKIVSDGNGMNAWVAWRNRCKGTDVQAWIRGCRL

B1: anti-Lys aptamer (Ellington) (ssDNA)
DNA: ATCTACGAATTCATCAGGGCTAAAGAGTGCAGAGTTACTTAG
B1: binds.
